Assays:
[1] = molecular target: monomeric wild-type RBD (319-541) of the SARS-CoV-2 spike (S)-protein (SARS-CoV-2 (Wuhan-Hu-1 isolate)) (UniProt P0DTC2); experiment: SEC
[2] = molecular target: tRBD-TA, truncated RBD (319-537) with T323 mutated to alanine (SARS-CoV-2 (Wuhan-Hu-1 isolate)) (UniProt P0DTC2); experiment: SEC

## monomeric wild-type RBD (319-541) of the SARS-CoV-2 spike (S)-protein (from UniProt P0DTC2 319-541) (domain or fragment)
[1]
  proportion of dimer in the preparation: 20 to 25%
  stoichiometry N: 2

## tRBD-TA, truncated RBD (319-537) with T323 mutated to alanine (from UniProt P0DTC2 319-537) (domain or fragment)
[2]
  percent of the protein dimerized after 7 days at 25°C: 10%
  proportion of dimer in the preparation: 25 to 28%

From article PMC9011732
